For orientation: stoichiometry N means the number of molecules, sites or subunits per partner or assembly.

The experiment deals with T1, Human Claudin-7 (Cldn7), wild type, His-tagged (human), O95471.
T1 chain: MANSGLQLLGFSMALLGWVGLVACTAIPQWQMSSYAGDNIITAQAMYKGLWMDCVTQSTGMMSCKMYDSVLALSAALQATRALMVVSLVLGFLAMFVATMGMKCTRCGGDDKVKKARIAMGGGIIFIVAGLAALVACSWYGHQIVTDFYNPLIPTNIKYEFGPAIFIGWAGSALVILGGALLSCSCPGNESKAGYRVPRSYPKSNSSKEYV
Nature of the experiment: SDS-PAGE and Western blot of SDS-stable oligomers; purified Cldn7 (IMAC eluate) on 10% SDS-PAGE, detected with an anti-His-tag antibody. Conditions: remark: other sources report otherwise. For orientation: Immunoblotting shows a protein as a band on a membrane.

Several values for one entry are separate records, joined by “and”; a condition that tells them apart may be missing. Equal values may be shown once.

B1: Human Claudin-7 (Cldn7), wild type, His-tagged, O95471 1-211 (natural protein)
chain: MANSGLQLLGFSMALLGWVGLVACTAIPQWQMSSYAGDNIITAQAMYKGLWMDCVTQSTGMMSCKMYDSVLALSAALQATRALMVVSLVLGFLAMFVATMGMKCTRCGGDDKVKKARIAMGGGIIFIVAGLAALVACSWYGHQIVTDFYNPLIPTNIKYEFGPAIFIGWAGSALVILGGALLSCSCPGNESKAGYRVPRSYPKSNSSKEYV
With B1, the stoichiometry N was 2 and 3.
